Measured values taken from patent US20090137002A1 (published 2009).

T1: recombinant mouse EphB2 (mouse, UniProt P54763 19-540, limits assumed)
T1 construct: also called mEphB2
T1 sequence (looked up): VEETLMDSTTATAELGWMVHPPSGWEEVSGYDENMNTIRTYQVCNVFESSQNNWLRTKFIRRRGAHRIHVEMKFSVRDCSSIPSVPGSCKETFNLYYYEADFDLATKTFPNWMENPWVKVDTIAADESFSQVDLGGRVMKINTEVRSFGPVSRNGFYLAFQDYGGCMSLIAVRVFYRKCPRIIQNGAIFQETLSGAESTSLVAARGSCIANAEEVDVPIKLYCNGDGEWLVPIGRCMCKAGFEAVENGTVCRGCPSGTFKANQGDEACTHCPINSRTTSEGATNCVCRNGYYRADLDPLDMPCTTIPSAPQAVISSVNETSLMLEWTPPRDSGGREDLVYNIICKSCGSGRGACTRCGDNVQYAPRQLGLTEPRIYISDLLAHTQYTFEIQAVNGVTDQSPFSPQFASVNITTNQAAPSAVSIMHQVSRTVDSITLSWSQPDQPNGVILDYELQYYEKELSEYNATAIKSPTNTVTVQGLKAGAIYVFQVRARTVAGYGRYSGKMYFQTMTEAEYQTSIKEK

T2: rat EphB1 (rat, UniProt P09759 18-538, limits assumed)
T2 sequence (looked up): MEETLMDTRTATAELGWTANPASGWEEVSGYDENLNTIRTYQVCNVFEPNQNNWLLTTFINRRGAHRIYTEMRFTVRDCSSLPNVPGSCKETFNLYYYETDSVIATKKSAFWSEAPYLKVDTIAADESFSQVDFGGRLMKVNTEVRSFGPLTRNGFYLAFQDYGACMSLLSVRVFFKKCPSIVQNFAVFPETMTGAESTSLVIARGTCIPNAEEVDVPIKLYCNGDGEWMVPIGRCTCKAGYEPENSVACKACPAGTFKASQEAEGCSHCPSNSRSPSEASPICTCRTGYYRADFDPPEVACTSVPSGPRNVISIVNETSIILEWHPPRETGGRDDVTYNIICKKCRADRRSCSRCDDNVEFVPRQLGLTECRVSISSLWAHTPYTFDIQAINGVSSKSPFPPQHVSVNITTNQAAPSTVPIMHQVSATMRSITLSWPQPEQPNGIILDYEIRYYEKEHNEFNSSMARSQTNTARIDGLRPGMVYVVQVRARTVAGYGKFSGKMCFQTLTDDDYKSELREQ

T3: recombinant human EphB4-Fc fusion protein (human, UniProt P54760 16-539)
T3 construct: extracellular domain; also called hEphB4; hu EphB4-Fc
T3 sequence (looked up): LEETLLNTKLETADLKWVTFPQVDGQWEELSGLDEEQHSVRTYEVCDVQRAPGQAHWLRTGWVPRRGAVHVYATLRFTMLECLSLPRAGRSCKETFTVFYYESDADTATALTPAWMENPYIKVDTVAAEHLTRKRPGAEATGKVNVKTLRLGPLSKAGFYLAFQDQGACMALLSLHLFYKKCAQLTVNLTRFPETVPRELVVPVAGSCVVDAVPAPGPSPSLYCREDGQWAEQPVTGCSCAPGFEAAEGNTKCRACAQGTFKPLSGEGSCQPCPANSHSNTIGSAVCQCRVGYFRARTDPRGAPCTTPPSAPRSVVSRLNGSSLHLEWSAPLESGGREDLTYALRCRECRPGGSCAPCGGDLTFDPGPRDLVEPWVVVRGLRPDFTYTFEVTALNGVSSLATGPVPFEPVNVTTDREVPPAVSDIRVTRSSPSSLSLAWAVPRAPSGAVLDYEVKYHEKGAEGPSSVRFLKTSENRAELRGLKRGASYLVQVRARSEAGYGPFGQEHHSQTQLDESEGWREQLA


Experiments:
[1] = target: T4, recombinant mouse EphA4-Fc fusion protein (mouse, UniProt Q03137 20-547, limits assumed); assay: ELISA on coated receptor
T4 construct: also called mEphA4; not shown: Fc part, not described
T4 sequence (Q03137 20-547 limits assumed): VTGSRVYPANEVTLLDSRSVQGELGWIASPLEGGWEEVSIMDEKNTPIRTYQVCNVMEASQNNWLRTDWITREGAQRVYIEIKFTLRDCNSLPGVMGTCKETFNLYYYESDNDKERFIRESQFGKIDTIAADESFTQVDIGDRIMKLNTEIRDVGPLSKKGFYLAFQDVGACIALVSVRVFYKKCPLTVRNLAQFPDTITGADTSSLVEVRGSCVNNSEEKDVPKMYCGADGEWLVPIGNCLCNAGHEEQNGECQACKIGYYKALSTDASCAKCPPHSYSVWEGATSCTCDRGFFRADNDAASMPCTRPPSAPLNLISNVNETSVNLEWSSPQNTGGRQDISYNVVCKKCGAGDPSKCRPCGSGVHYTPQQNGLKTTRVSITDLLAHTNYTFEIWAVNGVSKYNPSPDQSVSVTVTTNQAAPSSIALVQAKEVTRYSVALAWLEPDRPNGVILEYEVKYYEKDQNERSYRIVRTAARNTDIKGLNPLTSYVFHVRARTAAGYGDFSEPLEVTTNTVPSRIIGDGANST
Protocol: (§1) A 96-well plate was coated with recombinant mEphB1, -2, -3, -4, -6, mEphA4 and hEphB4 in PBS o/n at 4° C. (5 μg/mL; 100 μL/well). The next day, the antigen was discarded and the plate blocked with 3% BSA/PBS (300 μl/well) for 2 hrs at room temperature (RT). Blocking solution was discarded and anti-EphB4 Fabs were added to the wells at a concentration of 20 μg/mL in 1% BSA/PBS and incubated for 1 hr at RT. Fabs were discarded and the plate was washed 3× with PBS. Anti-human F(ab′)₂—HRP was added at a concentration recommended by the manufacturer in 1% BSA/PBS and incubated for 1 hr at RT. The plate was washed 3× with PBS and 100 μL/well chemifluorescent substrate was added. After development, fluorescence was measured in a fluorescence reader.

recombinant mouse EphB2 = target: T1, recombinant mouse EphB2; assay: ELISA on coated receptor
Protocol: as §1

rat EphB1 = target: T2, rat EphB1; assay: ELISA on coated receptor
[2] = target: T3, recombinant human EphB4-Fc fusion …; assay: SET (MSD), solution equilibrium titration
Protocol: Two independent measurements were performed on human and murine EphB4-Fc.

[3] = target: T3, recombinant human EphB4-Fc fusion …; assay: competition ELISA on coated hEphB4, competitor biotinylated mEphrinB2 250 ng/mL
Protocol: A 96-well plate was coated with recombinant hEphB4 in PBS o/n at 4° C. (5 μg/mL; 100 μL/well). The next day, the antigen was discarded and the plate blocked with 3% BSA/PBS (300 μl/well) for 2 hrs at room temperature (RT). Blocking solution was discarded and anti-EphB4 Fabs were added to the wells at different concentrations in 1% BSA/PBS and incubated for 30 min at RT. Recombinant biotinylated murine EphrinB2 was added at a final concentration of 250 ng/mL and incubated at RT for a further 30 min. The plate was washed and bound EphrinB2 was detected with Streptavidin-HRP (incubation 30 min at RT) and chemifluorescent substrate.

Row | Binder | binding result [1] | binding result (recombinant mouse EphB2) | binding result (rat EphB1) | Kd [2] | IC50 (read off the curve) [3]
1 | MOR03641 Fab (Fab, V domains shown, Monomeric HuCAL Fab (VH1A, kappa1), purified, MH-tagged; also called 3541 [sic]) VH: QVQLVQSGAEVKKPGSSVKVSCKASGGTFSTYAISWVRQAPGQGLEWMGRIIPIFGTANYAQKFQGRVTITADESTSTAYMELSSLRSEDTAVYYCARSSYTILTTYYNYNAMDNWGQGTLVTVSS VL: DIQMTQSPSSLSASVGDRVTITCRASQNINNFLNWYQQKPGKAPKLLIYGSSILQSGVPSRFSGSGSGTDFTLTISSLQPEDFAVYYCHQVSDTSDTFGQGTKVEIKR | no binding (tested: 20 µg/mL) | no binding (tested: 20 µg/mL) | no binding (tested: 20 µg/mL) | > 5 nM | ~4 µg/mL
2 | MOR03639 Fab (Fab, V domains shown, Monomeric HuCAL Fab (VH3, lambda3), purified, MH-tagged) VH: QVQLVESGGGLVQPGGSLRLSCAASGFTFSNYYLHWVRQAPGKGLEWVSGISYSGSSTYYADSVKGRFTISRDNSKNTLYLQMNSLRAEDTAVYYCARFYQRRQIPHGYDVWGQGTLVTVSS VL: DIELTQPPSVSVAPGQTARISCSGDNIGDYYVHWYQQKPGQAPVLVIYRDSNRPSGIPERFSGSNSGNTATLTISGTQAEDEADYYCGSYDMPFGGTVFGGGTKLTVLG | no binding (tested: 20 µg/mL) | no binding (tested: 20 µg/mL) | no binding (tested: 20 µg/mL) |  | 
3 | MOR03640 Fab (Fab, V domains shown, Monomeric HuCAL Fab, purified, MH-tagged) VH: QVQLVESGGGLVQPGGSLRLSCAASGFTFNNSWMSWVRQAPGKGLEWVSNITSSSSMTHYADSVKGRFTISRDNSKNTLYLQMNSLRAEDTAVYYCARKGMSFYNNKYAKSMFDLWGQGTLVTVSS VL: DIELTQPPSVSVAPGQTARISCSGDNLGKKYVHWYQQKPGQAPVLVIYYDSKRPSGIPERFSGSNSGNTATLTISGTQAEDEADYYCSAWTTTMMHIVFGGGTKLTVLG |  |  |  | 1.05 nM | 
